In this assay the target is T1, human IFNAR-1 protein (form not stated) (human, UniProt P17181 28-436, limits assumed).
T1 construct: bispecific ELISA
T1 sequence (looked up): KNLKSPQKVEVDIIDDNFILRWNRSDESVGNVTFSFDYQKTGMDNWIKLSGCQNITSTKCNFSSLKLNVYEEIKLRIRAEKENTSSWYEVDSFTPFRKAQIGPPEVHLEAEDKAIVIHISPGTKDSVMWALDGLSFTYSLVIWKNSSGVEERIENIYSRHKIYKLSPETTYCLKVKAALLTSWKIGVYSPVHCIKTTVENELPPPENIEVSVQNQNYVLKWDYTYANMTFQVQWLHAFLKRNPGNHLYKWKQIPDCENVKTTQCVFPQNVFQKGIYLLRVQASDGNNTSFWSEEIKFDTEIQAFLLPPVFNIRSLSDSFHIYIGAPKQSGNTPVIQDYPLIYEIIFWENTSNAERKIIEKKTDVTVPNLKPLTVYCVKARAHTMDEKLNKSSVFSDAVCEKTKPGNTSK
As to the kind of experiment: affinity ranking of expressed humanized 8G11 IgGs (method not named).

B1: 8G11 humanized VH3 + VL3 (antibody, V domains shown)
VH: QVQLVQSGAEVVKPGASVKVSCKGSGFNIKDYYMHWVKQAPGQGLEWIGRIDPEDAETKYAPKFQGRVTITADTSTSTVYLELSSLRSEDTAVYYCARGGNFYVMDYWGQGTLVTVSS
VL: DIQLTQSPSFLSTSVGDRVTITCKASQNVGTNVVWYQQKPGKSPKVLIYSASYRVSGVPSRFSGSGSGTEFTLIISSVQPEDFATYFCQQKNNYPYTFGQGTKLEIK
notes: Humanized IgG expressed in HEK293; also called VH3 + VL3 (8G11)
As a reminder, the Kd is the free concentration of one partner at which half of the binding sites on the other are occupied at equilibrium, for simple one-to-one binding. Low readings indicate higher affinity, high ones lower affinity. As usually defined, the koff is the first-order rate constant of dissociation. Read a low koff as a long-lived complex. The kon is the second-order rate constant of association. As to B1, the equilibrium dissociation constant (Kd) is 0.364 nM, the koff is 0.00011 s⁻¹ and the on-rate (kon) amounted to 301000 M⁻¹ s⁻¹.

B2: 8G11 humanized VH4 + VL2 (antibody, V domains shown)
VH: QVQLVQSGAEVVKPGASVKLSCKGSGFNIKDYYMHWVKQAPGQGLEWIGRIDPEDAETKYAPKFQGRATITADTSTSTAYLELSSLRSEDTAVYYCARGGNFYVMDYWGQGTLVTVSS
VL: DIQLTQSPSFLSTSVGDRVTITCKASQNVGTNVVWYQQKPGKSPKVLIYSASYRVSGVPSRFSGSGSGTEFTLIISSLQPEDFATYYCQQKNNYPYTFGQGTKLEIK
notes: Humanized IgG expressed in HEK293; also called VH4 + VL2 (8G11)
Regarding B2, the Kd turned out to be 0.332 nM, the koff was 9.69e-05 s⁻¹ and the kon was 292000 M⁻¹ s⁻¹.

B3: 8G11 humanized VH3 + VL1 (antibody, V domains shown)
VH: QVQLVQSGAEVVKPGASVKVSCKGSGFNIKDYYMHWVKQAPGQGLEWIGRIDPEDAETKYAPKFQGRVTITADTSTSTVYLELSSLRSEDTAVYYCARGGNFYVMDYWGQGTLVTVSS
VL: DIQLTQSPSFLSASVGDRVTITCKASQNVGTNVVWYQQKPGKAPKLLIYSASYRVSGVPSRFSGSGSGTEFTLTISSLQPEDFATYYCQQKNNYPYTFGQGTKLEIK
notes: Humanized IgG expressed in HEK293; also called VH3 + VL1 (8G11)
In turn, B3 displayed an equilibrium dissociation constant (Kd) of 0.413 nM, a koff of 0.000106 s⁻¹ and a kon of 256000 M⁻¹ s⁻¹.

B4: 8G11 humanized VH4 + VL1 (antibody, V domains shown)
VH: QVQLVQSGAEVVKPGASVKLSCKGSGFNIKDYYMHWVKQAPGQGLEWIGRIDPEDAETKYAPKFQGRATITADTSTSTAYLELSSLRSEDTAVYYCARGGNFYVMDYWGQGTLVTVSS
VL: DIQLTQSPSFLSASVGDRVTITCKASQNVGTNVVWYQQKPGKAPKLLIYSASYRVSGVPSRFSGSGSGTEFTLTISSLQPEDFATYYCQQKNNYPYTFGQGTKLEIK
notes: Humanized IgG expressed in HEK293; also called VH4 + VL1 (8G11)
In the case of B4, the dissociation constant (Kd) is 0.489 nM, the off-rate (koff) was 9.94e-05 s⁻¹ and the kon is 203000 M⁻¹ s⁻¹.

B5: 8G11 humanized VH3 + VL2 (antibody, V domains shown)
VH: QVQLVQSGAEVVKPGASVKVSCKGSGFNIKDYYMHWVKQAPGQGLEWIGRIDPEDAETKYAPKFQGRVTITADTSTSTVYLELSSLRSEDTAVYYCARGGNFYVMDYWGQGTLVTVSS
VL: DIQLTQSPSFLSTSVGDRVTITCKASQNVGTNVVWYQQKPGKSPKVLIYSASYRVSGVPSRFSGSGSGTEFTLIISSLQPEDFATYYCQQKNNYPYTFGQGTKLEIK
notes: Humanized IgG expressed in HEK293; also called VH3 + VL2 (8G11)
For B5, binding was characterised by a dissociation constant (Kd) of 0.389 nM, the koff worked out at 0.000111 s⁻¹ and the kon came to 284000 M⁻¹ s⁻¹.

B6: 8G11 humanized VH2 + VL3 (antibody, V domains shown)
VH: QVQLVQSGAEVVKPGASVKVSCKGSGFNIKDYYMHWVRQAPGQGLEWIGRIDPEDAETKYAPKFQGRVTMTADTSTSTVYMELSSLRSEDTAVYYCARGGNFYVMDYWGQGTLVTVSS
VL: DIQLTQSPSFLSTSVGDRVTITCKASQNVGTNVVWYQQKPGKSPKVLIYSASYRVSGVPSRFSGSGSGTEFTLIISSVQPEDFATYFCQQKNNYPYTFGQGTKLEIK
notes: Humanized IgG expressed in HEK293; also called VH2 + VL3 (8G11)
B6 had a Kd of 0.364 nM, a dissociation rate constant (koff) of 9.65e-05 s⁻¹ and a kon of 265000 M⁻¹ s⁻¹.

B7: 8G11 humanized VH1 + VL2 (antibody, V domains shown)
VH: QVQLVQSGAEVKKPGASVKVSCKASGFNIKDYYMHWVRQAPGQGLEWMGRIDPEDAETKYAPKFQGRVTMTRDTSTSTVYMELSSLRSEDTAVYYCARGGNFYVMDYWGQGTLVTVSS
VL: DIQLTQSPSFLSTSVGDRVTITCKASQNVGTNVVWYQQKPGKSPKVLIYSASYRVSGVPSRFSGSGSGTEFTLIISSLQPEDFATYYCQQKNNYPYTFGQGTKLEIK
notes: Humanized IgG expressed in HEK293; also called VH1 + VL2 (8G11)
Take B7: the Kd is 0.765 nM, the koff is 0.000127 s⁻¹ and the kon stood at 167000 M⁻¹ s⁻¹.

B8: 8G11 humanized VH1 + VL3 (antibody, V domains shown)
VH: QVQLVQSGAEVKKPGASVKVSCKASGFNIKDYYMHWVRQAPGQGLEWMGRIDPEDAETKYAPKFQGRVTMTRDTSTSTVYMELSSLRSEDTAVYYCARGGNFYVMDYWGQGTLVTVSS
VL: DIQLTQSPSFLSTSVGDRVTITCKASQNVGTNVVWYQQKPGKSPKVLIYSASYRVSGVPSRFSGSGSGTEFTLIISSVQPEDFATYFCQQKNNYPYTFGQGTKLEIK
notes: Humanized IgG expressed in HEK293; also called VH1 + VL3 (8G11)
Turning to B8, the Kd was determined as 0.865 nM, the koff was found to be 0.0002 s⁻¹ and the association rate constant (kon) worked out at 231000 M⁻¹ s⁻¹.

B9: 8G11 humanized VH3 + VL4 (antibody, V domains shown)
VH: QVQLVQSGAEVVKPGASVKVSCKGSGFNIKDYYMHWVKQAPGQGLEWIGRIDPEDAETKYAPKFQGRVTITADTSTSTVYLELSSLRSEDTAVYYCARGGNFYVMDYWGQGTLVTVSS
VL: DIQMTQSPSFLSTSVGDRVTVTCKASQNVGTNVVWYQQKPGKSPKVLIYSASYRVSGVPSRFSGSGSGTEFTLIISSVQPEDFATYFCQQKNNYPYTFGQGTKLEIK
notes: Humanized IgG expressed in HEK293; also called VH3 + VL4 (8G11)
B9 gave a dissociation constant Kd of 0.401 nM, a koff of 0.000113 s⁻¹ and a kon of 281000 M⁻¹ s⁻¹.

B10: 8G11 humanized VH4 + VL4 (antibody, V domains shown)
VH: QVQLVQSGAEVVKPGASVKLSCKGSGFNIKDYYMHWVKQAPGQGLEWIGRIDPEDAETKYAPKFQGRATITADTSTSTAYLELSSLRSEDTAVYYCARGGNFYVMDYWGQGTLVTVSS
VL: DIQMTQSPSFLSTSVGDRVTVTCKASQNVGTNVVWYQQKPGKSPKVLIYSASYRVSGVPSRFSGSGSGTEFTLIISSVQPEDFATYFCQQKNNYPYTFGQGTKLEIK
notes: Humanized IgG expressed in HEK293; also called VH4 + VL4 (8G11)
In the case of B10, the equilibrium dissociation constant (Kd) came out at 0.372 nM, the koff was determined as 0.000105 s⁻¹ and the kon was 283000 M⁻¹ s⁻¹.

B11: 8G11 humanized VH2 + VL4 (antibody, V domains shown)
VH: QVQLVQSGAEVVKPGASVKVSCKGSGFNIKDYYMHWVRQAPGQGLEWIGRIDPEDAETKYAPKFQGRVTMTADTSTSTVYMELSSLRSEDTAVYYCARGGNFYVMDYWGQGTLVTVSS
VL: DIQMTQSPSFLSTSVGDRVTVTCKASQNVGTNVVWYQQKPGKSPKVLIYSASYRVSGVPSRFSGSGSGTEFTLIISSVQPEDFATYFCQQKNNYPYTFGQGTKLEIK
notes: Humanized IgG expressed in HEK293; also called VH2 + VL4 (8G11)
Take B11: the dissociation constant Kd was determined as 0.388 nM, the dissociation rate constant (koff) stood at 0.000102 s⁻¹ and the kon came to 262000 M⁻¹ s⁻¹.

B12: 8G11 humanized VH1 + VL4 (antibody, V domains shown)
VH: QVQLVQSGAEVKKPGASVKVSCKASGFNIKDYYMHWVRQAPGQGLEWMGRIDPEDAETKYAPKFQGRVTMTRDTSTSTVYMELSSLRSEDTAVYYCARGGNFYVMDYWGQGTLVTVSS
VL: DIQMTQSPSFLSTSVGDRVTVTCKASQNVGTNVVWYQQKPGKSPKVLIYSASYRVSGVPSRFSGSGSGTEFTLIISSVQPEDFATYFCQQKNNYPYTFGQGTKLEIK
notes: Humanized IgG expressed in HEK293; also called VH1 + VL4 (8G11)
B12: the dissociation constant (Kd) was 0.836 nM, the off-rate (koff) was determined as 0.000141 s⁻¹ and the on-rate constant (kon) was determined as 169000 M⁻¹ s⁻¹.
